Measurements: US20230159662A1 (Kyowa Kirin, published 2023)
Positions count from the first letter of the chain named. Numbers in names are those of the source.

B1: human IgG1 anti-human CCR4 antibody (KM2160), S239E/I332E, CH of SEQ ID NO 176 (antibody)
heavy: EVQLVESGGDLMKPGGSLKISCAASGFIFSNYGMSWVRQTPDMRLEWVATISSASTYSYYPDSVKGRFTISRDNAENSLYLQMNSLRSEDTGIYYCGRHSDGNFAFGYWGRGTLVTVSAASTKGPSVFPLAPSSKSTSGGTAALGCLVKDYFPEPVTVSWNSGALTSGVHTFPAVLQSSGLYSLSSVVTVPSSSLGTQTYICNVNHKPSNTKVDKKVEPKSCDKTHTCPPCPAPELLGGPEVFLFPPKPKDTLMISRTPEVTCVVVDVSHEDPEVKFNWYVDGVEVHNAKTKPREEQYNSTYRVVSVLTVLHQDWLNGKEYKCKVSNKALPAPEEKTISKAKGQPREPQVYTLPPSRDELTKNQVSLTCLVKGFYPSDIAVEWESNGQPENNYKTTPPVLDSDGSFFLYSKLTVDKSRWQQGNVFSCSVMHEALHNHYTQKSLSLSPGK
light: DVLMTQTPLSLPVSLGDQASISCRSSRNIVHINGDTYLEWYLQRPGQSPKLLIYKVSNRFSGVPDRFSGSGSGTDFTLKISRVEAEDLGVYYCFQGSLLPWTFGGGTRLEIRRTVAAPSVFIFPPSDEQLKSGTASVVCLLNNFYPREAKVQWKVDNALQSGNSQESVTEQDSKDSTYSLSSTLTLSKADYEKHKVYACEVTHQGLSSPVTKSFNRGEC
B2: human IgG1 anti-human CCR4 antibody (KM2160), printed as S239E/I332E, CH of SEQ ID NO 178 (antibody)
heavy: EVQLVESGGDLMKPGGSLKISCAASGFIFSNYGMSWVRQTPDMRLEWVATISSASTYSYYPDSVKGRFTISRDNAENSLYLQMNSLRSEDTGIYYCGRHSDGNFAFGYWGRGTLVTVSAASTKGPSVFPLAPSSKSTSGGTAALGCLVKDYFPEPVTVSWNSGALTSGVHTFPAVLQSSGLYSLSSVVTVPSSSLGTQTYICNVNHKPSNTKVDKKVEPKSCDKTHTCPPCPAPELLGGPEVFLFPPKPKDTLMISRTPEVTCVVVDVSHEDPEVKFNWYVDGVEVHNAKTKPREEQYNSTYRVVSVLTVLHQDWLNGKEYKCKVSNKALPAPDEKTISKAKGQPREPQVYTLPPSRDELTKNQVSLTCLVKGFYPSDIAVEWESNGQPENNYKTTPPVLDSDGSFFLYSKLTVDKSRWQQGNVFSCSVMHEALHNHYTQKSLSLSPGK
light: B1 light
B3: human IgG1 anti-human CCR4 antibody (KM2160), S239E/I332L (antibody)
heavy: not shown
light: B1 light
B4: human IgG1 anti-human CCR4 antibody (KM2160), S239D/I332L (antibody)
heavy: not shown
light: B1 light
B5: human IgG1 anti-human CCR4 antibody (KM2160), S239D/I332H (antibody)
heavy: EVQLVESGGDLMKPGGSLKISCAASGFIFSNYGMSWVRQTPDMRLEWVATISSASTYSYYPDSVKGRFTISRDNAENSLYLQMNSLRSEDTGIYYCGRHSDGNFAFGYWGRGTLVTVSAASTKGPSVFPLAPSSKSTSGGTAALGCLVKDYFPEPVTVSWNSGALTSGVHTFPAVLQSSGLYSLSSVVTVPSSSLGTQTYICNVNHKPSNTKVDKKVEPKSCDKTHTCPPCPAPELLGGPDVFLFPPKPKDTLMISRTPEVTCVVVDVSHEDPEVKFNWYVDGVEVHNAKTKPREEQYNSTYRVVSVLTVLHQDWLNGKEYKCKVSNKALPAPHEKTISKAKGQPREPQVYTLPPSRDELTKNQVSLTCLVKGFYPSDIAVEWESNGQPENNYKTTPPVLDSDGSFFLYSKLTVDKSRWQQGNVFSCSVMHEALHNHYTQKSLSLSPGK
light: B1 light
B6: human IgG1 anti-human CCR4 antibody (KM2160), S239D/I332T (antibody)
heavy: not shown
light: B1 light
B7: human IgG1 anti-human CCR4 antibody (KM2160), S239E/I332Y (antibody)
heavy: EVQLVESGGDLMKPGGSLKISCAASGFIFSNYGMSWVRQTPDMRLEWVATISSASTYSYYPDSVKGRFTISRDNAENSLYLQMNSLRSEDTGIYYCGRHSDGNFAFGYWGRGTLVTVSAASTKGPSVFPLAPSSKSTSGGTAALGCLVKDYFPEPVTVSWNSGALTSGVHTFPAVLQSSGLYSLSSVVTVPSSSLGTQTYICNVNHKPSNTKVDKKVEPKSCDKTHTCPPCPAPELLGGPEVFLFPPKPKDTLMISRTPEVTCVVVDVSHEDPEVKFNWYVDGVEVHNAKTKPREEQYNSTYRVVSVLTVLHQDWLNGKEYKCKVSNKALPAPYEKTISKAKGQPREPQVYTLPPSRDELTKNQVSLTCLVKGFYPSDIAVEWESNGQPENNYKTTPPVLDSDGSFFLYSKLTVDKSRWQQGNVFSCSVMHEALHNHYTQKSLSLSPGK
light: B1 light
B8: human IgG1 anti-human CCR4 antibody (KM2160), S239D/I332Y (antibody)
heavy: not shown
light: B1 light
B9: human IgG1 anti-human CCR4 antibody (KM2160), S239E/I332W (antibody)
heavy: not shown
light: B1 light
B10: human IgG1 anti-human CCR4 antibody (KM2160), S239E/I332T (antibody)
heavy: not shown
light: B1 light
B11: human IgG1 anti-human CCR4 antibody (KM2160), S239E/K326I (antibody)
heavy: not shown
light: B1 light
B12: human IgG1 anti-human CCR4 antibody (KM2160), S239E/K326T (antibody)
heavy: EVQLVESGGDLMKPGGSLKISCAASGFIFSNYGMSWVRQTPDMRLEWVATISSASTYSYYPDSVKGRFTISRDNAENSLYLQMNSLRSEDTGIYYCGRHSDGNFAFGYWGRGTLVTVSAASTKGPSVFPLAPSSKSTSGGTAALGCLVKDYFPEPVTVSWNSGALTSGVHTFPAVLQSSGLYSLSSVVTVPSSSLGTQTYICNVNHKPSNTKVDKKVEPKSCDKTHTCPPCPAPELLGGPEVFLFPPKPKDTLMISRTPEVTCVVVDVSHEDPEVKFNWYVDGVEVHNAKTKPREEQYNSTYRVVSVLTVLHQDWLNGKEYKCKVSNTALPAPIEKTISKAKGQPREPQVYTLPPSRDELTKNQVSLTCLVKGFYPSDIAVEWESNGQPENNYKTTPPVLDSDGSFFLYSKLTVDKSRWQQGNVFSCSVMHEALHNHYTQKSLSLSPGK
light: B1 light
B13: human IgG1 anti-human CCR4 antibody (KM2160), S239D/I332W (antibody)
heavy: not shown
light: B1 light
B14: human IgG1 anti-human CCR4 antibody (KM2160), S239D/L326I (as printed) (antibody)
heavy: not shown
light: B1 light
B15: human IgG1 anti-human CCR4 antibody (KM2160), S239D/K326E (antibody)
heavy: not shown
light: B1 light
B16: human IgG1 anti-human CCR4 antibody (KM2160), S239D/K326L (antibody)
heavy: not shown
light: B1 light
B17: human IgG1 anti-human CCR4 antibody (KM2160), S239E/K326L (antibody)
heavy: not shown
light: B1 light
B18: human IgG1 anti-human CCR4 antibody (KM2160), S239E/I332H (antibody)
heavy: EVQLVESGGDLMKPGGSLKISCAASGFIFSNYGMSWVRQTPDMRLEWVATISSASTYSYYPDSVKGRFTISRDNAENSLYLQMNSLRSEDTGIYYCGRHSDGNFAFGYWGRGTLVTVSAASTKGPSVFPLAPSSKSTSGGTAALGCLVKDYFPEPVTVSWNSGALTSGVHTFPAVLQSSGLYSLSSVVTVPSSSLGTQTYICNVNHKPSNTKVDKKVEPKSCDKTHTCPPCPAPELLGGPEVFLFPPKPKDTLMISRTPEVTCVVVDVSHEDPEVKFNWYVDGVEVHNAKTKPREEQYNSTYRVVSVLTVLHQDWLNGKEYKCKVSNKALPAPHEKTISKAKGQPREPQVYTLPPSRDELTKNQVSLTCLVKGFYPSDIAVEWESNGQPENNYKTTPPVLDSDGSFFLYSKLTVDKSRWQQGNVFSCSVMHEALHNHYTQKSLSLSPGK
light: B1 light
B19: human IgG1 anti-human CCR4 antibody (KM2160), S239D/I332A (antibody)
heavy: not shown
light: B1 light
B20: human IgG1 anti-human CCR4 antibody (KM2160), S239E/I332F (antibody)
heavy: not shown
light: B1 light
B21: human IgG1 anti-human CCR4 antibody (KM2160), S239D/I332F (antibody)
heavy: not shown
light: B1 light
B22: human IgG1 anti-human CCR4 antibody (KM2160), S239E/K326E (antibody)
heavy: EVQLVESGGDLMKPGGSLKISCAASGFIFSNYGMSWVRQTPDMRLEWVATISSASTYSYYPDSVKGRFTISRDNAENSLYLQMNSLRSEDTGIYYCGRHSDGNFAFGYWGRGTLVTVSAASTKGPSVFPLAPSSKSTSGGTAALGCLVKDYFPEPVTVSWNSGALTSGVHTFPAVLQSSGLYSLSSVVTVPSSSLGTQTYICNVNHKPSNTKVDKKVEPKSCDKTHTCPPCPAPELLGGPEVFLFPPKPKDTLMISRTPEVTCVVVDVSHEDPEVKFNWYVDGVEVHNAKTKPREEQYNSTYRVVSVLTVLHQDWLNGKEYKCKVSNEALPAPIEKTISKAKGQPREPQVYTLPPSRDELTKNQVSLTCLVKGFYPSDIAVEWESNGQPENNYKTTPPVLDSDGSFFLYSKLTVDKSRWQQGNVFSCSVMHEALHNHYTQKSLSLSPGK
light: B1 light
B23: human IgG1 anti-human CCR4 antibody (KM2160), S239D/I332D (antibody)
heavy: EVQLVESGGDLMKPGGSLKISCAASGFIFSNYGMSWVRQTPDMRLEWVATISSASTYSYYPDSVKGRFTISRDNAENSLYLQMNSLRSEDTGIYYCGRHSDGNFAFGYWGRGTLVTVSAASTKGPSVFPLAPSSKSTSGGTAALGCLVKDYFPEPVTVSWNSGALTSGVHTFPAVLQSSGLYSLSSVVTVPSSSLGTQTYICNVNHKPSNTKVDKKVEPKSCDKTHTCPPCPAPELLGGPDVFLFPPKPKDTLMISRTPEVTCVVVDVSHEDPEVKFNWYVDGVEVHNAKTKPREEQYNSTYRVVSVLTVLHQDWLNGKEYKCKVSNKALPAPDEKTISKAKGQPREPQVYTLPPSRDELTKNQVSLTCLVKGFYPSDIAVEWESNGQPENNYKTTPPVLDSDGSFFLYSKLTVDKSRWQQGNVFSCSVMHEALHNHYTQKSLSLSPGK
light: B1 light
B24: human IgG1 anti-human CCR4 antibody (KM2160), S239E/I332A (antibody)
heavy: not shown
light: B1 light
B25: human IgG1 anti-human CCR4 antibody (KM2160), S298A/E333A/K334A (AAA)/P329R (antibody)
heavy: EVQLVESGGDLMKPGGSLKISCAASGFIFSNYGMSWVRQTPDMRLEWVATISSASTYSYYPDSVKGRFTISRDNAENSLYLQMNSLRSEDTGIYYCGRHSDGNFAFGYWGRGTLVTVSAASTKGPSVFPLAPSSKSTSGGTAALGCLVKDYFPEPVTVSWNSGALTSGVHTFPAVLQSSGLYSLSSVVTVPSSSLGTQTYICNVNHKPSNTKVDKKVEPKSCDKTHTCPPCPAPELLGGPSVFLFPPKPKDTLMISRTPEVTCVVVDVSHEDPEVKFNWYVDGVEVHNAKTKPREEQYNATYRVVSVLTVLHQDWLNGKEYKCKVSNKALRAPIAATISKAKGQPREPQVYTLPPSRDELTKNQVSLTCLVKGFYPSDIAVEWESNGQPENNYKTTPPVLDSDGSFFLYSKLTVDKSRWQQGNVFSCSVMHEALHNHYTQKSLSLSPGK
light: B1 light
B26: human IgG1 anti-human CCR4 antibody (KM2160), S298A/E333A/K334A (AAA)/A330F (antibody)
heavy: B25 heavy with R331P, A332F
light: B1 light
B27: human IgG1 anti-human CCR4 antibody (KM2160), S298A/E333A/K334A (AAA)/V379M (antibody)
heavy: B25 heavy with R331P, V381M
light: B1 light
B28: human IgG1 anti-human CCR4 antibody (KM2160), S298A/E333A/K334A (AAA)/K248M (antibody)
heavy: B25 heavy with K250M, R331P
light: B1 light
B29: human IgG1 anti-human CCR4 antibody (KM2160), S298A/E333A/K334A (AAA)/A327D (antibody)
heavy: B25 heavy with A329D, R331P
light: B1 light
B30: human IgG1 anti-human CCR4 antibody (KM2160), S298A/E333A/K334E (antibody)
heavy: B25 heavy with R331P, A336E
light: B1 light
B31: human IgG1 anti-human CCR4 antibody (KM2160), S298A/E333A/K334A (AAA)/F243L (antibody)
heavy: B25 heavy with F245L, R331P
light: B1 light
B32: human IgG1 anti-human CCR4 antibody (KM2160), S298A/E333A/K334A (AAA)/S239D (antibody)
heavy: B25 heavy with S241D, R331P
light: B1 light
B33: human IgG1 anti-human CCR4 antibody (KM2160), S239E (antibody)
heavy: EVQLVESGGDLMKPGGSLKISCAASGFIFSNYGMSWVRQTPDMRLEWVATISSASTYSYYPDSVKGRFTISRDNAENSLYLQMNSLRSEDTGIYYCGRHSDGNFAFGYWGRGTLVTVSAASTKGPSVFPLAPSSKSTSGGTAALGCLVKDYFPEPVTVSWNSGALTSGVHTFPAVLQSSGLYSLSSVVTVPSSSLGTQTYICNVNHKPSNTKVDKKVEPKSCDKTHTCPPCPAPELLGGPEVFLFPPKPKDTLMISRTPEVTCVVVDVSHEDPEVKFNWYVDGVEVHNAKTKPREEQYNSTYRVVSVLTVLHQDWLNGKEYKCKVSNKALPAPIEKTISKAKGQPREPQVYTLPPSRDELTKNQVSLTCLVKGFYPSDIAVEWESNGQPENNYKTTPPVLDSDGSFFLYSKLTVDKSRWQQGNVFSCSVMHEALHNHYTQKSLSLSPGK
light: B1 light
B34: human IgG1 anti-human CCR4 antibody (KM2160), S298A/E333A/K334A (AAA)/S239D/I332E (antibody)
heavy: B25 heavy with S241D, R331P, I334E
light: B1 light
B35: human IgG1 anti-human CCR4 antibody (KM2160), S298A/E333A/K334A (AAA)/D265G (antibody)
heavy: B25 heavy with D267G, R331P
light: B1 light
B36: human IgG1 anti-human CCR4 antibody (KM2160), printed as S298A/E333A/K334A, CH of SEQ ID NO 120 (antibody)
heavy: B25 heavy with A300T, R331P
light: B1 light
B37: human IgG1 anti-human CCR4 antibody (KM2160), S298A/E333A/K334A (AAA)/F372Y (antibody)
heavy: B25 heavy with R331P, F374Y
light: B1 light
B38: human IgG1 anti-human CCR4 antibody (KM2160), S298A/E333A/K334A (AAA)/E294W (antibody)
heavy: B25 heavy with E296W, R331P
light: B1 light
B39: human IgG1 anti-human CCR4 antibody (KM2160), S298A/E333A/K334A (AAA)/E258H (antibody)
heavy: B25 heavy with E260H, R331P
light: B1 light
B40: human IgG1 anti-human CCR4 antibody (KM2160), S298A/E333A/K334A (AAA)/E283L (antibody)
heavy: B25 heavy with E285L, R331P
light: B1 light
B41: human IgG1 anti-human CCR4 antibody (KM2160), S298A/E333A/K334A (AAA)/L235T (antibody)
heavy: B25 heavy with L237T, R331P
light: B1 light
B42: human IgG1 anti-human CCR4 antibody (KM2160), S298A/E333A/K334A (AAA)/G236S (antibody)
heavy: B25 heavy with G238S, R331P
light: B1 light
B43: human IgG1 anti-human CCR4 antibody (KM2160), S298A/E333A/K334A (AAA)/Q295T (antibody)
heavy: B25 heavy with Q297T, R331P
light: B1 light
B44: human IgG1 anti-human CCR4 antibody (KM2160), S239D (antibody)
heavy: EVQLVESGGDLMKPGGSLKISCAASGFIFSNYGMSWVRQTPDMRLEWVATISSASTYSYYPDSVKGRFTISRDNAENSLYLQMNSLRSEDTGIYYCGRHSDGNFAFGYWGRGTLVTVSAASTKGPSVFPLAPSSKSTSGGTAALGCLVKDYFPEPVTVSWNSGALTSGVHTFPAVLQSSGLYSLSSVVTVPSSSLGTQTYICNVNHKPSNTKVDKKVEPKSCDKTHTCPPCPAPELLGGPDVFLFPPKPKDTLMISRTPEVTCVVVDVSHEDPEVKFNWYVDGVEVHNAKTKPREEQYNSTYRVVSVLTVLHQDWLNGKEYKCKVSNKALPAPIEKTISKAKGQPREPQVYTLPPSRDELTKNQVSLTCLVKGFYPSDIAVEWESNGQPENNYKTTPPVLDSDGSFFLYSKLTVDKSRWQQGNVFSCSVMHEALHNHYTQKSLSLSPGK
light: B1 light
B45: human IgG1 anti-human CCR4 antibody (KM2160), S298A/E333A/K334A (AAA)/A339T (antibody)
heavy: B25 heavy with R331P, A341T
light: B1 light

target: T1, human CD16a (Val type) stably expressed on NK-92 cells (NK-92/CD16 transfectant) (human, UniProt P08637 17-254); assay: cell-based or functional assay
T1 sequence (P08637 17-254 F176V): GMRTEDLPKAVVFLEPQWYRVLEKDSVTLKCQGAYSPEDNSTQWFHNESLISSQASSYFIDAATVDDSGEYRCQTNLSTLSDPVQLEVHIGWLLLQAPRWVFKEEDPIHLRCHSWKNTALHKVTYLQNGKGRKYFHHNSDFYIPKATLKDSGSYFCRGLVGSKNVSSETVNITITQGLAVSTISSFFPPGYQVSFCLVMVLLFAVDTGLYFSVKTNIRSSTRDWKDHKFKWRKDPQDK

Binder	relative ADCC activity (AAA = 100)
B1	153 relative, AAA at 0.1 µg/mL = 100
B2	90 relative, AAA at 0.1 µg/mL = 100
B3	57 relative, AAA at 0.1 µg/mL = 100
B4	82 relative, AAA at 0.1 µg/mL = 100
B5	84 relative, AAA at 0.1 µg/mL = 100
B6	72 relative, AAA at 0.1 µg/mL = 100
B7	130 relative, AAA at 0.1 µg/mL = 100
B8	123 relative, AAA at 0.1 µg/mL = 100
B9	44 relative, AAA at 0.1 µg/mL = 100
B10	52 relative, AAA at 0.1 µg/mL = 100
B11	135 relative, AAA at 0.1 µg/mL = 100
B12	132 relative, AAA at 0.1 µg/mL = 100
B13	94 relative, AAA at 0.1 µg/mL = 100
B14	146 relative, AAA at 0.1 µg/mL = 100
B15	147 relative, AAA at 0.1 µg/mL = 100
B16	113 relative, AAA at 0.1 µg/mL = 100
B17	109 relative, AAA at 0.1 µg/mL = 100
B18	71 relative, AAA at 0.1 µg/mL = 100
B19	94 relative, AAA at 0.1 µg/mL = 100
B20	34 relative, AAA at 0.1 µg/mL = 100
B21	93 relative, AAA at 0.1 µg/mL = 100
B22	129 relative, AAA at 0.1 µg/mL = 100
B23	150 relative, AAA at 0.1 µg/mL = 100
B24	62 relative, AAA at 0.1 µg/mL = 100

target: T1, human CD16a (Val type) stably expressed …; assay: cell-based or functional assay; remark: another data set of the same source

Binder	relative ADCC activity (AAA = 100)
B25	5 relative, AAA at 0.1 µg/mL = 100
B26	96 relative, AAA at 0.1 µg/mL = 100
B27	51 relative, AAA at 0.1 µg/mL = 100
B28	165 relative, AAA at 0.1 µg/mL = 100
B29	-28 relative, AAA at 0.1 µg/mL = 100
B30	114 relative, AAA at 0.1 µg/mL = 100
B31	79 relative, AAA at 0.1 µg/mL = 100
B32	291 relative, AAA at 0.1 µg/mL = 100
B33	88 relative, AAA at 0.1 µg/mL = 100
B34	119 relative, AAA at 0.1 µg/mL = 100
B35	-89 relative, AAA at 0.1 µg/mL = 100
B36	-97 relative, AAA at 0.1 µg/mL = 100
B37	70 relative, AAA at 0.1 µg/mL = 100
B38	171 relative, AAA at 0.1 µg/mL = 100
B39	94 relative, AAA at 0.1 µg/mL = 100
B40	82 relative, AAA at 0.1 µg/mL = 100
B41	-69 relative, AAA at 0.1 µg/mL = 100
B42	-46 relative, AAA at 0.1 µg/mL = 100
B43	4 relative, AAA at 0.1 µg/mL = 100
B44	116 relative, AAA at 0.1 µg/mL = 100
B45	36 relative, AAA at 0.1 µg/mL = 100
